# B1: CCHC-type zinc finger nucleic acid binding protein (Homo sapiens), P62633 (parent)
# chain: MSSNECFKCGRSGHWARECPTGGGRGRGMRSRGRGGFTSDRGFQFVSSSLPDICYRCGESGHLAKDCDLQEDACYNCGRGGHIAKDCKEPKREREQCCYNCGKPGHLARDCDHADEQKCYSCGEFGHIQKDCTKVKCYRCGETGHVAINCSKTSEVNCYRCGESGHLARECTIEATA
# Variants of: B1
# Conditions: with anm1_rat Prmt1, Q63009
# Chain of anm1_rat Prmt1, Q63009 (Q63009 whole entry, looked up): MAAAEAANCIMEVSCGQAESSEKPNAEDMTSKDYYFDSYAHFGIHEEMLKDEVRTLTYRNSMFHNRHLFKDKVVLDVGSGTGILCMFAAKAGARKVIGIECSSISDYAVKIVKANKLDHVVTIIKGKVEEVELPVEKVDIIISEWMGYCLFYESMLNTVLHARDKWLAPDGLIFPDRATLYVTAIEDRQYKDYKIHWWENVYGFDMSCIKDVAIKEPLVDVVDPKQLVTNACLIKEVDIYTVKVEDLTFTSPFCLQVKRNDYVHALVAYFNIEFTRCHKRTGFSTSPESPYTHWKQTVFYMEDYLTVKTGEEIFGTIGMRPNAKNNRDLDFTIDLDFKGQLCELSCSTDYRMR
row,Variant,effect of a mutation on the interaction
1,R25A;R27A,decreasing interaction

# — IntAct's records for PubMed 24726729
